Source: the supplement of paper PMC12042874
± gives the uncertainty stated by the source.

Test: amyloid nucleation score (Sup35N fusion, yeast selection) (log enrichment); library NNK1; higher = more nucleation; inactive = no reads after selection
Procedure, shortened: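 The nucleation score is the DiMSum log enrichment of output over input reads, centred on the mode score of non-aggregating sequences. Only sequences with 100 or more input reads were scored, using Illumina sequencing of input and output plasmid inserts. Psi-negative yeast expressing Sup35N fused to peptides of 20 random codons were induced 24 hours with 100 μM copper sulfate and grown 7 days at 30°C on medium lacking adenine and uracil.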

Substance	amyloid nucleation score
WISETMFSVSAMSPVTSDAF	-0.713 ± 0.4
NLALLEYVINSVSTMFYISN	0.276 ± 0.24
SEMLSLKIGQGTVTPFNFWM	-0.09 ± 1.2
FFVPSYLPFMMFHVLSCRDF	-0.417 ± 0.45
YGSKICSIAFCPLLHVQNHP	6.567 ± 0.055
PYRPLSGRHRVLTQYGKLVG	0.112 ± 0.81
HVSACRNKIHLWSRTHLSGE	0.83 ± 0.5
ISLIFHVMNDLWCIAIELGS	0.183 ± 0.59
RSRVSIRSHSDRRGRVKRVV	1.15 ± 0.65
RCNSDESYL	0.078 ± 0.42
HNFLSYFQNRNDYCASN	-0.503 ± 0.6
IWFLHHEVKF	0.603 ± 0.58
PLWLCGGFQQWASGCRSVGL	-1.06 ± 0.49
VNVITCLY	-1.33 ± 1.4
SFCLAVGPNLMTIGICMLQQ	inactive
CRLCLRKHLSVISSSAEYLP	inactive
PDSLFPLCFLRLWLISSIVR	1.49 ± 0.84
LVNWYTQILICTCPGHKLRR	8.156 ± 0.053
KDARLHFSWRL	0.933 ± 0.6
SFTWFVTAANYKW	1.8 ± 0.35
DGEFRRDSSCVGVEERVVLV	0.551 ± 1.2
SYLTWDHLEVNLCTYSILGR	0.45 ± 0.52
FGWGTLIGGLWTDNEQSLFT	-0.375 ± 0.49
RFYMWYLVLEVLEIGKLADP	-1.04 ± 2.7
QAFSNESVTRDLLCG	-0.957 ± 0.64

Substance	amyloid nucleation score
PDCLPPWSRRLLGNRVAIGL	1.01 ± 0.57
LVFGILHGCFEVVSGMLRVD	-0.801 ± 0.65
PNRRCCPMVGFIWLYRVL	0.836 ± 0.85
KFVYVVVMSMARACRNVPGH	0.272 ± 0.39
QEYRDMILKPFHRWFTMFK	0.941 ± 0.44
DLNLFDRNHVELRMIVD	0.726 ± 0.65
SCLCYEDRSLHGYWNMSYAQ	0.938 ± 0.49
TYWEMVHWGQEASMGSIRRR	1.97 ± 0.24
NKLGLLRVFKVRFPPCCCCD	-0.266 ± 0.99
NCRMGR	-0.016 ± 1.7
DRLMFRYSIRRIRFVSESSP	1.41 ± 0.43
ASLHHKSWTDHADTMTPPRT	inactive
MVSTPSDGNLED	-0.816 ± 0.65
YFKFRGDDCENYWSVSGNEA	0.111 ± 1.2
LRIPFTSWRYDNEMAVTGSG	0.394 ± 0.84
HKTFGCCLDLWHIMPHFIIL	-0.396 ± 0.37
TSSRCRYMFFLRHIFCKILK	inactive
NKTLV	inactive
YAQPIFKLCRTG	-0.921 ± 2.4
FFCRFGILFSTKGFLGFMRF	1.01 ± 0.67
KGICRGRSLSVPESWAPFR	0.133 ± 0.31
DYGDYCAKWTQSYNALTVRF	0.594 ± 0.58
AIFNLVSSL	-0.792 ± 1
ISNLWYNCCGIRPS	5.86 ± 0.047
VPGLRI	0.584 ± 0.54

Substance	amyloid nucleation score
ERIIRKAC	0.338 ± 1.4
ILSIYVSDAYKSMSETN	1.14 ± 0.42
FRSLFYVFHYLECFYL	3.52 ± 0.12
ATRSSSFRMHDKNLCLTVDM	0.855 ± 0.48
SIWSGMLTGCFRLRSITWHN	0.908 ± 0.24
CFGFFVWANHAYHAQRCVAS	1.29 ± 0.33
LVCRYFRNRWMPSTRWGVHS	0.711 ± 0.85
SSMLSSNRRSALWKQDVSKG	0.734 ± 1.1
CVYVSMLH	-0.483 ± 0.85
GLQKSVEGNYMTFLSFSLAM	5.03 ± 0.052
FKCYWAVCIELWYGCSTVGL	0.588 ± 1.2
RVYYSRYYVFDHSYFDTRRG	-1.07 ± 1.3
LFSNPFRQAWH	-0.445 ± 0.71
FMCTINKFLYTVACPWHYLP	3.96 ± 0.16
SGKGFFDKSKFLVVMRGRTR	0.06 ± 0.39
FIMIDRPETLQPNLDGLKL	-0.524 ± 0.45
SSIGVVKGCIVLWLSMWNQR	4.32 ± 0.066
YIRGYTIFSNWCFGLASGSA	-0.525 ± 0.83
RSMDRTGSIAGRYCVKKMSS	0.423 ± 0.3
GLCGVILCELISNVREGKSK	4.97 ± 0.084
SWKPVLSREDFWTNHKGRPM	0.565 ± 0.45
RNVGFLFSKRDQPWLKSPGD	-0.983 ± 2.4
PPLAYWVYPMVRTLFEGRVP	0.754 ± 0.45
TEALYWRLYMGQNKILSCRG	0.366 ± 0.61
HLRWQMDWCSHNNGMDVMRG	3.71 ± 0.12

Substance	amyloid nucleation score
SFNWPGFPDCFGPFRAVFIS	-0.61 ± 1.1
DSSWTWKDVV	0.397 ± 1.2
DYSLKCLTPVVSDRAWCRLN	0.398 ± 0.83
TTYHCGP	0.039 ± 1.5
HSIVDSRLSCICILSS	4.16 ± 0.16
MFGIFM	3.58 ± 0.099
NTMGSNWYMVVNSWFVRRCS	-1.01 ± 1.2
QYVPNTLDNSPDAVGMSNIY	-0.29 ± 1.7
VGVWLFCLAYWE	inactive
HWYVTVCLVSMCQVGKGKDN	3.5 ± 0.087
SECSINRWF	0.965 ± 0.76
MSSFRGDLEFAYDYS	-0.582 ± 1.2
KSYSMMMSMMGNRMWVKRLV	-0.02 ± 0.5
STVWLSVGALAFARASGRRA	3.74 ± 0.12
IFYFYFCRYLSIQMVILGVQ	0.983 ± 0.33
RVDRMKNIFVRYRTVRVHGG	9.304 ± 0.045
FFLRSPFL	0.016 ± 0.41
TPSLAEADCL	-0.909 ± 2.7
YEPDELTWSHCTELTEALML	-0.433 ± 0.66
WCSLGCNYTVLFTLLGMVNT	0.116 ± 0.37
EFTGDRQSYFCLQYSCTSLR	-0.096 ± 1.7
GYMCIVLIRG	1.12 ± 0.71
RVFKFSPYILKAILEVSNA	0.458 ± 0.32
NAAYRVWMWKSLVRSLGRYK	0.647 ± 0.4
RRGSNDDSYHRRQVDRKPMA	0.166 ± 0.66

Substance	amyloid nucleation score
HLVLFYVSLITFARYSFMGV	-0.058 ± 0.3
SVLVLSRYFWNKLMRRWLVA	-0.002 ± 1.2
ACRDVGHSVVLCKFKS	-1.01 ± 1.4
SSEIDYVFMAPREV	-0.06 ± 0.63
APSTDGMNMPTNGDRTPTLW	0.245 ± 0.42
YRGIEAFCAGTNWTSPKWSR	-0.169 ± 0.3
PTCLSWGGVMRRDL	0.341 ± 0.48
RHMHSQFPAGLLIVGLRIVW	0.915 ± 0.75
MSNFLTELGNNSTHREDGER	0.501 ± 0.78
ILTLIMAL	0.013 ± 0.33
WYDAK	0.286 ± 0.36
CHGCLGG	-0.312 ± 1.5
YMSWASLRKHFIFVV	-0.282 ± 1.2
VYFVTFWSYVNFHV	-0.208 ± 0.28
KETSGYRFYRMANLP	-0.21 ± 1.2
GRVLYKSCALNNFSIMQVLC	4.61 ± 0.1
NSFRTGVLYSMESEGMAWWC	-0.044 ± 0.76
IYRSMNRLVVQEGYAFIGGG	2 ± 0.3
DAGMH	0.189 ± 0.3
AAALRIIGHYMRALLTELLQ	0.687 ± 0.46
TVTDYKTYASLLFGTKTYAI	2.17 ± 0.47
ISNVWNCGKFRSLGLFVTGQ	0.247 ± 0.31
TNTSHVLTLESCSCRERVSR	0.969 ± 0.55
LSGGPSGLINAFLYPSPNKW	0.07 ± 0.81
QWLAVVVIKVGLTWQYRFGG	0.198 ± 0.91

Substance	amyloid nucleation score
TLILVTLMASIRNDTRTSWS	0.979 ± 0.54
MIGTYRWMLIMGLETVRKGG	inactive
YIGFVGSGYLVVCVP	-2.02 ± 0.99
RFVNKGGT	-0.325 ± 0.69
DGELMAYLSDGNQG	inactive
MFVDFTDVRMVYLSLCVYML	1.25 ± 0.093
SFILCGISRSYQMLLMTRYL	6.09 ± 0.068
TKTLL	0.346 ± 0.34
HVVKCGHYLRRVRNMGKLEF	-0.163 ± 0.79
SANCIWFFL	7.105 ± 0.071
ILSNTRSVFYSSN	-0.089 ± 0.38
QRQNVYVGGYIANMVHGSGC	1.27 ± 0.58
NYSDYMWTRLANLA	-0.2 ± 0.72
EVYVRRRVSIQKEGVLHAQK	0.907 ± 0.97
WFRVGVPHN	0.472 ± 1.2
MSVCAIYRVRVFQCCFTCLH	-0.953 ± 0.68
GVSMGKESMIV	-0.671 ± 0.72
GFFLVLYHCFYWISRVR	0.737 ± 0.58
FWWIGYKTSSDGPRAVAIWC	-0.137 ± 0.26
HHGSCFEGLFCSETFCLAIM	6.495 ± 0.055
CFKGF	0.946 ± 0.49
ICLITVSMYKSRWIFSKKLT	-0.073 ± 0.54
CYFCYQGYMID	-0.537 ± 0.33
TVLIILRALLNSSPKTFD	0.387 ± 0.22
CLAFQLDWLRMGLFKSMEGT	-0.384 ± 0.35

Substance	amyloid nucleation score
SLVLSYRVASNIKNPMTLDY	1.24 ± 0.15
SEYLASMAVTRFLGIGWMNS	0.548 ± 0.57
NGFLTSRCMLVCMKGMV	0.729 ± 0.34
DRLGDHLKDILVKFYNV	0.294 ± 0.99
WPVLFFI	-1.46 ± 1.8
FAVSRVEMNLGL	-0.117 ± 0.34
LIWAVLCVKHTKEYVWLAHL	-0.469 ± 0.54
SYSMQRRKCTPAFCFA	-0.36 ± 0.54
MHLVQSCYLVIPRVLDPELV	0.313 ± 1
MSDSG	-0.576 ± 0.81
LYVVSSVFLGEPVRKQVYQI	-0.678 ± 0.96
FNLVKT	0.704 ± 0.69
SGCVQDCSLKRIFLMPDKAL	-1.03 ± 0.55
YDYMVALFSRS	-0.479 ± 0.66
NVAFYVTVV	-0.049 ± 0.26
VKLFSVNKNNMTVPSTALCS	5.969 ± 0.047
FGFTGLTSW	-0.146 ± 1.4
NGFQLTILKDHGLVKRQSPR	inactive
PCLNRLVV	0.386 ± 0.5
GCSLWVGVLCKNCFFDDLIM	5.807 ± 0.055
IVQIIPGVCCA	0.311 ± 1.2
WFGSYWSIVVTTVRVIV	inactive
